Data: the supplement of paper PMC11865577

What was measured:
Test in all cases: pull-down binding Z-score (relative to library population); higher = stronger binding
[1] = system: TO-N3 (biotin conjugate); conditions: RNA library: Library-2
Summary of the method: (§1)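 Streptavidin beads with 100 pmol of biotin-conjugated small molecule were incubated for 60 min at 25 °C with 1 μg of heat-folded Cy5- or Cy3-end-labelled RNA library in phosphate/NaCl/KCl buffer. Bound RNA was eluted in hot SDS after three washes and hybridised to a DNA barcode microarray at 55.5 °C for 20 h. Each binding score is a library-referenced Z-score, computed after beads-only subtraction and a trimmed mean of barcoded replicate probes.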

[2] = system: TO-3-N3-2 (biotin conjugate); conditions: RNA library: Library-2
Summary of the method: as §1

[3] = system: TO-3-N3 (biotin conjugate); conditions: RNA library: Library-2
Summary of the method: as §1

[4] = system: G-clamp-N3 (biotin conjugate); conditions: RNA library: Library-1 (pre-miRNA loops + repeats)
Summary of the method: as §1

[5] = system: TO-N3-2 (biotin conjugate); conditions: RNA library: Library-2
Summary of the method: as §1

With “CACCAGCCAGGCAUUGCUCAGCCCGUUUCCCUCUGGGGGAGCAAGGAGUGGUGCUGGGUUUGUC [hsa-mir-593]” the “pull-down binding Z-score” value [1] was 1.15, the “pull-down binding Z-score” value [2] was -0.0489 and the “pull-down binding Z-score” value [3] was 0.762. The “pull-down binding Z-score” value [4] was -0.156 and the “pull-down binding Z-score” value [5] was 1.24.

In the case of UUGAGAAGUAAUUGA [hsa-mir-548ak], the “pull-down binding Z-score” value [1] was 0.251, the “pull-down binding Z-score” value [2] was -0.0284 and the “pull-down binding Z-score” value [3] was 0.404. For the same sequence, the “pull-down binding Z-score” value [4] was 0.0758 and the “pull-down binding Z-score” value [5] was -0.239.

With GUGUAUGGGCUGAGCCUUGC [hsa-mir-6805] the “pull-down binding Z-score” value [1] was 0.44, the “pull-down binding Z-score” value [2] was 0.0312 and the “pull-down binding Z-score” value [3] was -0.021. For the same sequence, the “pull-down binding Z-score” value [4] was 0.279 and the “pull-down binding Z-score” value [5] was 0.868.

With CAGACUCUG [hsa-mir-4326] the “pull-down binding Z-score” value [1] was -0.0561, the “pull-down binding Z-score” value [2] was -0.381 and the “pull-down binding Z-score” value [3] was 0.067. For the same sequence, the “pull-down binding Z-score” value [4] was 1.33 and the “pull-down binding Z-score” value [5] was -0.0772.

“CCUUCUGUAUACAUGUAUACAGGAGGAAGG [hsa-mir-4716]” was tested, and the “pull-down binding Z-score” value [1] was 0.495, the “pull-down binding Z-score” value [2] was 0.0583 and the “pull-down binding Z-score” value [3] was 0.507. For the same sequence, the “pull-down binding Z-score” value [4] was 0.64 and the “pull-down binding Z-score” value [5] was 0.00714.

In the case of “CUGCAGGAAAGGGAAGACCAAGGCUUGCUGUCUGUCCAGUCUGCCACCCUACCCUGU [hsa-mir-1231]”, the “pull-down binding Z-score” value [1] was 0.788, the “pull-down binding Z-score” value [2] was 0.108 and the “pull-down binding Z-score” value [3] was -0.0839. For the same sequence, the “pull-down binding Z-score” value [4] was -0.156 and the “pull-down binding Z-score” value [5] was 1.54.

For “CAGGUGCCUCAAAGGGCAUCCCACCUG [hsa-mir-3151]”, the “pull-down binding Z-score” value [1] was -0.673, the “pull-down binding Z-score” value [2] was -0.452 and the “pull-down binding Z-score” value [3] was -0.578. For the same sequence, the “pull-down binding Z-score” value [4] was -0.124 and the “pull-down binding Z-score” value [5] was 0.0349.

In the case of “UGGGUAGGAAUAUCCUGGAUCCCCU [hsa-mir-3189]”, the “pull-down binding Z-score” value [1] was 0.102, the “pull-down binding Z-score” value [2] was 0.312 and the “pull-down binding Z-score” value [3] was -0.0266. The “pull-down binding Z-score” value [4] was -0.575 and the “pull-down binding Z-score” value [5] was 0.501.

“GCGGCUGUUAAUGAUUUUAACAGUUGC [hsa-mir-449c]” was tested, and the “pull-down binding Z-score” value [1] was -1.14, the “pull-down binding Z-score” value [2] was -0.119 and the “pull-down binding Z-score” value [3] was -0.84. For the same sequence, the “pull-down binding Z-score” value [4] was 0.888 and the “pull-down binding Z-score” value [5] was -1.2.

“ACCACCCAGGCCUUAUGGCUUCAUA [hsa-mir-7974]” was tested, and the “pull-down binding Z-score” value [1] was 0.233, the “pull-down binding Z-score” value [2] was -0.0756 and the “pull-down binding Z-score” value [3] was -0.102. For the same sequence, the “pull-down binding Z-score” value [4] was -1.68 and the “pull-down binding Z-score” value [5] was 0.0927.

With “CAGUGAACUAUCAUUGUGCCACUG [hsa-mir-1254-1]” the “pull-down binding Z-score” value [1] was 0.135, the “pull-down binding Z-score” value [2] was -0.125 and the “pull-down binding Z-score” value [3] was 0.06. For the same sequence, the “pull-down binding Z-score” value [4] was 0.978 and the “pull-down binding Z-score” value [5] was -0.0953.

In the case of UAGUACAGGUGAGAUUGUACUG [hsa-mir-3920], the “pull-down binding Z-score” value [1] was -0.888, the “pull-down binding Z-score” value [2] was -0.323 and the “pull-down binding Z-score” value [3] was -0.707. For the same sequence, the “pull-down binding Z-score” value [4] was 0.5 and the “pull-down binding Z-score” value [5] was -0.564.

With CAUGUUAAGUGUUGUCCUACAG [hsa-mir-5087] the “pull-down binding Z-score” value [1] was -0.368, the “pull-down binding Z-score” value [2] was -0.142 and the “pull-down binding Z-score” value [3] was -0.483. The “pull-down binding Z-score” value [4] was -0.819 and the “pull-down binding Z-score” value [5] was 0.127.

With CGUACGCUUUAUCUGUGACGUAUG [hsa-mir-411] the “pull-down binding Z-score” value [1] was -0.611, the “pull-down binding Z-score” value [2] was -0.338 and the “pull-down binding Z-score” value [3] was -0.61. For the same sequence, the “pull-down binding Z-score” value [4] was 0.625 and the “pull-down binding Z-score” value [5] was -0.0511.

CUCCUCCGCUGCCGCCGGGAGAG [hsa-mir-4785] was tested, and the “pull-down binding Z-score” value [1] was -0.794, the “pull-down binding Z-score” value [2] was -0.327 and the “pull-down binding Z-score” value [3] was -0.584. For the same sequence, the “pull-down binding Z-score” value [4] was 0.0193 and the “pull-down binding Z-score” value [5] was 0.0312.

“UGGAGGUGAUGGGGGCAGGGGAUGGGUCUCACCCUCCC [hsa-mir-5088]” was tested, and the “pull-down binding Z-score” value [1] was 3.11, the “pull-down binding Z-score” value [2] was 2.93 and the “pull-down binding Z-score” value [3] was 3.33. The “pull-down binding Z-score” value [4] was 0.537 and the “pull-down binding Z-score” value [5] was 2.59.

“CUGUGACGUGCUCCAUCACCGGGCAG [hsa-mir-3714]” was tested, and the “pull-down binding Z-score” value [1] was -0.0254, the “pull-down binding Z-score” value [2] was -0.391 and the “pull-down binding Z-score” value [3] was -0.37. The “pull-down binding Z-score” value [4] was 0.138 and the “pull-down binding Z-score” value [5] was 0.847.

“GAGAGAGUGCACAGCCAGCUCAGGGAUUAAAGCUCUUUCUCUCUCUCUC [hsa-mir-7110]” was tested, and the “pull-down binding Z-score” value [1] was 0.311, the “pull-down binding Z-score” value [2] was 0.535 and the “pull-down binding Z-score” value [3] was -0.181. For the same sequence, the “pull-down binding Z-score” value [4] was -0.385 and the “pull-down binding Z-score” value [5] was 1.09.

With GGAAGGGCGCCUGUGCUUCGUCC [hsa-mir-572] the “pull-down binding Z-score” value [1] was 0.52, the “pull-down binding Z-score” value [2] was -0.215 and the “pull-down binding Z-score” value [3] was 0.31. For the same sequence, the “pull-down binding Z-score” value [4] was 0.21 and the “pull-down binding Z-score” value [5] was 0.767.

With “CUUUCUGUUGUCUAAAAGAAAAGAACG [hsa-mir-521-1]” the “pull-down binding Z-score” value [1] was -0.124, the “pull-down binding Z-score” value [2] was 0.0499 and the “pull-down binding Z-score” value [3] was -0.211. The “pull-down binding Z-score” value [4] was 0.795 and the “pull-down binding Z-score” value [5] was 0.0505.

AGGACGGUGCGCCUUGUUUCCC [hsa-mir-3132] was tested, and the “pull-down binding Z-score” value [1] was 0.0408, the “pull-down binding Z-score” value [2] was -0.0152 and the “pull-down binding Z-score” value [3] was -0.376. The “pull-down binding Z-score” value [4] was -1.1 and the “pull-down binding Z-score” value [5] was 0.529.

For GUUCGGGGGUUCCGACGGCGAC [hsa-mir-6790], the “pull-down binding Z-score” value [1] was 2.67, the “pull-down binding Z-score” value [2] was 0.957 and the “pull-down binding Z-score” value [3] was 2.61. For the same sequence, the “pull-down binding Z-score” value [4] was 3.09 and the “pull-down binding Z-score” value [5] was 1.76.

For “CGGCGGCGGCGGCGGCGGCGGCGGCGGCGGCGGCGGCGGCGGCGGCGG [G4_r(CGG)16]”, the “pull-down binding Z-score” value [1] was 6.82, the “pull-down binding Z-score” value [2] was 9.63 and the “pull-down binding Z-score” value [3] was 8.23. The “pull-down binding Z-score” value [4] was -0.145 and the “pull-down binding Z-score” value [5] was 5.03.

In the case of UGAGUGCCGACUGGCGCCUG [hsa-mir-4750], the “pull-down binding Z-score” value [1] was 0.0638, the “pull-down binding Z-score” value [2] was -0.448 and the “pull-down binding Z-score” value [3] was -0.164. The “pull-down binding Z-score” value [4] was -0.352 and the “pull-down binding Z-score” value [5] was 0.446.

For AGGGCCUUCUGAGCCCAGGUCCG [hsa-mir-6716], the “pull-down binding Z-score” value [1] was 0.886, the “pull-down binding Z-score” value [2] was 0.018 and the “pull-down binding Z-score” value [3] was 0.611. The “pull-down binding Z-score” value [4] was 0.286 and the “pull-down binding Z-score” value [5] was 1.46.

CCUGGAGAGCUGCUGUCUCCAG [hsa-mir-6746] was tested, and the “pull-down binding Z-score” value [1] was 0.0297, the “pull-down binding Z-score” value [2] was -0.596 and the “pull-down binding Z-score” value [3] was -0.114. For the same sequence, the “pull-down binding Z-score” value [4] was 1.35 and the “pull-down binding Z-score” value [5] was 0.355.

For “GGAGACCCUAUACAUACCUGUUUCC [hsa-mir-5581]”, the “pull-down binding Z-score” value [1] was -0.37, the “pull-down binding Z-score” value [2] was -0.187 and the “pull-down binding Z-score” value [3] was -0.408. For the same sequence, the “pull-down binding Z-score” value [4] was -2.1 and the “pull-down binding Z-score” value [5] was -0.354.

“UUUGCUAUUUUUUUUUAAUGGCAAA [hsa-mir-548ac]” was tested, and the “pull-down binding Z-score” value [1] was -1.01, the “pull-down binding Z-score” value [2] was -0.0611 and the “pull-down binding Z-score” value [3] was -0.607. The “pull-down binding Z-score” value [4] was 0.725 and the “pull-down binding Z-score” value [5] was -1.46.

With GGAAAGGGGAUGCAGAGCCCUGCC [hsa-mir-4647] the “pull-down binding Z-score” value [1] was 1.44, the “pull-down binding Z-score” value [2] was 0.526 and the “pull-down binding Z-score” value [3] was 1.28. The “pull-down binding Z-score” value [4] was 1.97 and the “pull-down binding Z-score” value [5] was 1.52.

For CGGUCGGAUAAUCACAUGACGAG [hsa-mir-2114], the “pull-down binding Z-score” value [1] was -0.0316, the “pull-down binding Z-score” value [2] was -0.221 and the “pull-down binding Z-score” value [3] was -0.513. The “pull-down binding Z-score” value [4] was 0.425 and the “pull-down binding Z-score” value [5] was 0.592.

CAUCACUGGAAUGUUCCAGCGACU [hsa-mir-3654] was tested, and the “pull-down binding Z-score” value [1] was -0.267, the “pull-down binding Z-score” value [2] was -0.469 and the “pull-down binding Z-score” value [3] was -0.233. The “pull-down binding Z-score” value [4] was -0.704 and the “pull-down binding Z-score” value [5] was -0.17.
